Where a chain is given by its changes, count along the chain named.

Consider 10 molecules from patent US20250026827A1 (Alector, published 2025).

The target in assay [1] is T1, mouse SIRPβ1 on CHO cells (mouse).
T1 construct: Whole entry
T1 chain: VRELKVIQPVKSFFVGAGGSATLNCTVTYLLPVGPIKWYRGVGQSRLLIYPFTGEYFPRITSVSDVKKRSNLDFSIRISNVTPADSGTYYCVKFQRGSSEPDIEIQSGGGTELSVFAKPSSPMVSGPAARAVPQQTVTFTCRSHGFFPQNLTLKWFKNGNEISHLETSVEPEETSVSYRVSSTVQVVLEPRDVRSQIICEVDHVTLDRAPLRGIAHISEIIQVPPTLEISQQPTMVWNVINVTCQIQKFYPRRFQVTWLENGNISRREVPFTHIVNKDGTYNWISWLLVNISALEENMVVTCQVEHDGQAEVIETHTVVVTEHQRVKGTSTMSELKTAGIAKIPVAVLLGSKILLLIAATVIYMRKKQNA
Description: flow cytometry. (In general: In flow cytometry, cells or beads pass a laser one at a time.)

The target in assay [2] is T2, human SIRPα on cells (human, UniProt P78324 31-504).
T2 construct: Whole entry
In words: flow cytometry.

Assay [3] has as its target T3, mouse SIRPα on cells (mouse, UniProt P97797 32-513).
T3 construct: whole, on cells
T3 sequence (looked up): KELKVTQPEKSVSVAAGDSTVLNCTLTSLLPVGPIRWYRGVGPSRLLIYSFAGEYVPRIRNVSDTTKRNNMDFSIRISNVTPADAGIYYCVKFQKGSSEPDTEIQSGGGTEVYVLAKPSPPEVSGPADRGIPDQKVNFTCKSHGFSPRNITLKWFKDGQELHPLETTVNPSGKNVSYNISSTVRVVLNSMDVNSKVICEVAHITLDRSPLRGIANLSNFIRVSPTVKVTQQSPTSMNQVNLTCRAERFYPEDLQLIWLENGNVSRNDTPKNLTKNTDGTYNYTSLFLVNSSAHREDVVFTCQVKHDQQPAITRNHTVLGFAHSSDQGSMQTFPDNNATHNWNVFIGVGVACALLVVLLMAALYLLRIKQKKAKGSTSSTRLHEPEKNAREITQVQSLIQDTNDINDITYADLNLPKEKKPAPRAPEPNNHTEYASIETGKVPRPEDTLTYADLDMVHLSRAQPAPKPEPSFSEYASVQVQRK
In words: flow cytometry.

Assay [4] concerns the target T4, human SIRPβ1 isoform 1 on cells (human, UniProt O00241 30-398).
T4 construct: On CHO cells (low level), on BWZ/BW5147.G.1.4 cells (reporter cells co-express human DAP12) or on primary human myeloid cells; also called huSIRPβ1; BWZ-huSIRPβ1
In words: flow cytometry.

Assay [5] has as its target T1, mouse SIRPβ1 on CHO cells. In words: flow cytometry.
Assay [6] addresses T2, human SIRPα on cells. In words: flow cytometry. The source holds these as a separate data set.
In assay [7] the target is T3, mouse SIRPα on cells. In words: flow cytometry. This is another data set of the same source.
Assay [8] deals with T5, human SIRPα domain 1 (D1) Fc fusion (human, UniProt P78324 32-149).
T5 construct: also called human SIRPα D1-Fc; Human SIRPα Fc; not shown: C-terminal human IgG1 Fc
Description: Octet.

Assay [9] addresses T6, mouse SIRPα D1-Fc (mouse, UniProt P97797 32-150, limits assumed).
T6 construct: domain: D1
T6 sequence (looked up): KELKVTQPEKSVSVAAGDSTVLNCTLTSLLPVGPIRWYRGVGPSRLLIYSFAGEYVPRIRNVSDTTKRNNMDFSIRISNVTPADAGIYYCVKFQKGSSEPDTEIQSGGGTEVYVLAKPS
In words: Octet. In general terms: Biolayer interferometry detects binding as a change in optical thickness at a sensor tip.
Description: Briefly, Octet affinity measurements were performed by loading IgGs on-line onto AHQ sensors. Sensors were equilibrated off-line in assay buffer for 30 min and then monitored on-line for 60 seconds for baseline establishment. For avid binding measurement, sensors with loaded IgGs were exposed to 100 nM antigen (human SIRPα domain 1 (D1) Fc fusion or SIRPβ1 domain 1 (D1) Fc fusion) for 3 min, and then transferred to assay buffer for 3 min for off-rate measurement. Additional avid binding was determined by loading biotinylated SIRPβ1 monomer on SA sensors and exposing to 100 nM IgG in solution. Monovalent binding measurements were obtained by loading human SIRPα- or SIRPβ1-Fc fusion antigens onto AHQ sensor, followed by exposure to 100 nM anti-SIRPβ1 antibody Fab. Additional monovalent measurements were made by loading biotinylated human SIRPα or SIRPβ1 monomer to SA sensor followed by exposure to 100 nM Fab in solution. Kinetics data were fit using a 1:1 binding model in the data analysis software provided by ForteBio (ForteBio Data Analysis Software 7.0).
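For FOB in this document: antibodies tested at 1 µg/ml for 30 min on ice against receptor-expressing cells, detected with a PE-labelled secondary antibody, read as mean fluorescence intensity relative to background.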

T4 sequence (O00241 30-398): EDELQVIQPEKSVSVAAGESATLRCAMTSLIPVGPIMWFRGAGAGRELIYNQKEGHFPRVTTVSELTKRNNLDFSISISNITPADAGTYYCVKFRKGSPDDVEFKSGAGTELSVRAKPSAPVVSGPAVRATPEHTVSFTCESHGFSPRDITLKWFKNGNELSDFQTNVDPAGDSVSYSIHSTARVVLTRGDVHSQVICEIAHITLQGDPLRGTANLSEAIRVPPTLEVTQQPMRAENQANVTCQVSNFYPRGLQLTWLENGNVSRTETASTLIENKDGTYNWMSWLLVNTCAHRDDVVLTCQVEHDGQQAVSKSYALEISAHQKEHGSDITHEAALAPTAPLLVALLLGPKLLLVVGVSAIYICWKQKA

B1: SB-24 (antibody, V domains shown)
VH: QVQLQESGPGLVKPSETLSLTCAVSGYSISSGYYWAWIRQPPGKGLEWIGSIYHSGSTYYNPSLKSRVTISVDTSKNQFSLKLSSVTAADTAVYYCARDRSRGYPVYGMDVWGQGTTVTVSS
VL: EIVMTQSPATLSVSPGERATLSCRASQSVSSNLAWYQQKPGQAPRLLIYGASTRATGIPARFSGSGSGTEFTLTISSLQSEDFAVYYCQQLNIHPWTFGGGTKVEIK
notes: IgG
With B1, the FOB is 1.3 fold over background in [1], 2.5 fold over background in [2], 1.1 fold over background in [3] and 3.7 fold over background in assay [4]. Besides, the binding result in [5] is recorded as “no binding (tested: 1 ug/ml)”; in [6], “no binding (tested: 1 ug/ml)”; in assay [7], “no binding (tested: 1 ug/ml)”; in assay [8] it was “no binding (tested: 100 nM)”; in assay [9], “no binding (tested: 100 nM)”.

B2: SB-16 (antibody, V domains shown)
VH: QVQLVQSGAEVKKPGSSVKVSCKASGGTFSSYAISWVRQAPGQGLEWMGSIIPIFGTANYAQKFQGRVTITADESTSTAYMELSSLRSEDTAVYYCARANYYDSSGYSGLDLWGRGTLVTVSS
VL: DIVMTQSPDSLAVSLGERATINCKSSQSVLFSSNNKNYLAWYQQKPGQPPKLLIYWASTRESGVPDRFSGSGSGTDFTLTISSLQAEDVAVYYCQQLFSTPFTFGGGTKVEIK
notes: IgG
As for B2, the FOB was found to be 1.5 fold over background in [1], 2 fold over background in assay [2], 1.4 fold over background in assay [3] and 2 fold over background in assay [4]. The binding result in [5] was “no binding (tested: 1 ug/ml)”; in [6], “no binding (tested: 1 ug/ml)”; in assay [7], “no binding (tested: 1 ug/ml)”; in assay [8], “no binding (tested: 100 nM)”; in [9] it was “no binding (tested: 100 nM)”.

B3: SB-22 (antibody, V domains shown)
VH: EVQLVESGGGLVQPGGSLRLSCAASGFTVSSNYMSWVRQAPGKGLEWVSVIYSDGSTYYADSVKGRFTISRDNSKNTLYLQMNSLRAEDTAVYYCARPTRYGYDRLGMDVWGQGTTVTVSS
VL: DIQMTQSPSSVSASVGDRVTITCRASQGISSWLAWYQQKPGKAPKLLIYAASNLQSGVPSRFSGSGSGTDFTLTISSLQPEDFATYYCQQGNSYPITFGGGTKVEIK
notes: IgG
Regarding B3, the FOB is 1.4 fold over background in [1], 1.9 fold over background in assay [2], 0.9 fold over background in assay [3] and 1.4 fold over background in assay [4]. Moreover, the binding result is “no binding (tested: 1 ug/ml)” in assay [5]; “no binding (tested: 1 ug/ml)” in assay [6]; “no binding (tested: 1 ug/ml)” in assay [7]; “no binding (tested: 100 nM)” in assay [8]; “no binding (tested: 100 nM)” in assay [9].

B4: SB-25 (antibody, V domains shown)
VH: QVQLVQSGAEVKKPGSSVKVSCKASGGTFSSLAISWVRQAPGQGLEWMGGIIPIFGTANYAQKFQGRVTITADESTSTAYMELSSLRSEDTAVYYCARSGGDYSGYDYASGMDVWGQGTTVTVSS
VL: B3 VL with N53S, G91V, Y94F, I96W
notes: IgG
Consider B4, for which the FOB in assay [1] turned out to be 1.2 fold over background; in assay [2] it was 2.5 fold over background; in assay [3] it was 1.3 fold over background; in assay [4], 2.1 fold over background. In addition, the binding result in [5] is recorded as “no binding (tested: 1 ug/ml)”; in [6] it was “no binding (tested: 1 ug/ml)”; in [7], “no binding (tested: 1 ug/ml)”; in assay [8] it was “no binding (tested: 100 nM)”; in [9] it was “no binding (tested: 100 nM)”.

B5: SB-23 (antibody, V domains shown)
VH: QVQLVQSGAEVKKPGSSVKVSCKASGGTFSSYAISWVRQAPGQGLEWMGGIAPIFGTANYAQKFQGRVTITADESTSTAYMELSSLRSEDTAVYYCARTTYRDYYMDVWGKGTTVTVSS
VL: B3 VL with V11L, G28S, W32Y, A34N, N53S, G91A, N92Y, S93P, I96L
notes: IgG
B5: the FOB was found to be 1.5 fold over background in [1], 1.9 fold over background in assay [2], 1.4 fold over background in assay [3] and 2.4 fold over background in assay [4]. For the same molecule, the binding result is listed as “no binding (tested: 1 ug/ml)” in assay [5]; “no binding (tested: 1 ug/ml)” in assay [6]; “no binding (tested: 1 ug/ml)” in [7]; “no binding (tested: 100 nM)” in [8]; “no binding (tested: 100 nM)” in assay [9].

B6: SB-18 (antibody, V domains shown)
VH: QVQLVQSGAEVKKPGSSVKVSCKASGGTFSSYAISWVRQAPGQGLEWMGGIIPIFGTANYAQKFQGRVTITADESTSTAYMELSSLRSEDTAVYYCARAKPRGDYGMDVWGQGTTVTVSS
VL: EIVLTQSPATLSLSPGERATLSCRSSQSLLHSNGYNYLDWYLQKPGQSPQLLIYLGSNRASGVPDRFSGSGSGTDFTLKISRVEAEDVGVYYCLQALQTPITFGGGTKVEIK
notes: IgG
B6: the FOB in [1] turned out to be 1.2 fold over background; in assay [2] it was 2.4 fold over background; in assay [3], 0.9 fold over background; in assay [4], 2.8 fold over background. The binding result in assay [5] was “no binding (tested: 1 ug/ml)”; in [6] it was “no binding (tested: 1 ug/ml)”; in [7], “no binding (tested: 1 ug/ml)”; in assay [8], “no binding (tested: 100 nM)”; in assay [9], “no binding (tested: 100 nM)”.

B7: SB-27 (antibody, V domains shown)
VH: QVQLVQSGAEVKKPGSSVKVSCKASGGTFSSYAISWVRQAPGQGLEWMGGIIPIFGTANYAQKFQGRVTITADESTSTAYMELSSLRSEDTAVYYCARQDLGSSHWHFDLWGRGTLVTVSS
VL: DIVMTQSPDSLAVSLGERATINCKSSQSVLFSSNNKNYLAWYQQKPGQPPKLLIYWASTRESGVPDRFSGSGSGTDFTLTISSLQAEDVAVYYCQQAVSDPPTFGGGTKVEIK
notes: IgG
Consider B7, for which the FOB in assay [1] came out at 1.3 fold over background; in assay [2], 2.4 fold over background; in assay [3], 1.1 fold over background; in [4], 3.9 fold over background. Besides, the binding result in assay [5] is “no binding (tested: 1 ug/ml)”; in assay [6] it was “no binding (tested: 1 ug/ml)”; in [7], “no binding (tested: 1 ug/ml)”; in assay [8], “no binding (tested: 100 nM)”; in assay [9] it was “no binding (tested: 100 nM)”.

B8: SB-7 (antibody, V domains shown)
VH: QVQLVQSGAEVKKPGSSVKVSCKASGGTFSSYAISWVRQAPGQGLEWMGGIIPIFGTASYAQKFQGRVTITADESTSTAYMELSSLRSEDTAVYYCARETRQDSAHYYGMDVWGQGTTVTVSS
VL: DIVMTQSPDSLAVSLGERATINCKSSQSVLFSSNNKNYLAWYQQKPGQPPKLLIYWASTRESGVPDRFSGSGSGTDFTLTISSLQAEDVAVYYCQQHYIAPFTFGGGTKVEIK
notes: IgG
Consider B8, for which the FOB in [1] came out at 1.5 fold over background; in assay [2], 2 fold over background; in assay [3], 1 fold over background; in [4] it was 3.7 fold over background. For the same molecule, the binding result in assay [5] is reported as “no binding (tested: 1 ug/ml)”; in [6], “no binding (tested: 1 ug/ml)”; in assay [7], “no binding (tested: 1 ug/ml)”; in [8], “no binding (tested: 100 nM)”; in assay [9] it was “no binding (tested: 100 nM)”.

B9: SB-20 (antibody, V domains shown)
VH: B8 VH with G50S, S59N, E99D, T100G, Q102E, D103Y, S104G, A105G
VL: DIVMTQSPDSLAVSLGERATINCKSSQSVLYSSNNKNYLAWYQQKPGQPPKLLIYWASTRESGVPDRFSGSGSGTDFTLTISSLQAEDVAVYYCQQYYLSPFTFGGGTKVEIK
notes: IgG
As for B9, the FOB turned out to be 1.3 fold over background in assay [1], 2.2 fold over background in assay [2], 1.2 fold over background in [3] and 2.6 fold over background in assay [4]. Also, the binding result in [5] is listed as “no binding (tested: 1 ug/ml)”; in [6], “no binding (tested: 1 ug/ml)”; in assay [7], “no binding (tested: 1 ug/ml)”; in [8], “no binding (tested: 100 nM)”; in assay [9], “no binding (tested: 100 nM)”.

B10: SB-36 (antibody, V domains shown)
VH: QVQLVQSGAEVKKPGASVKVSCKASGYTFTSYYMHWVRQAPGQGLEWMGIINPSGGSTSYAQKFQGRVTMTRDTSTSTVYMELSSLRSEDTAVYYCAREGPEQLWYLDYWGQGTLVTVSS
VL: DIQMTQSPSSVSASVGDRVTITCRASQGISSWLAWYQQKPGKAPKLLIYAASSLQSGVPSRFSGSGSGTDFTLTISSLQPEDFATYYCQQAFSHRTFGGGTKVEIK
notes: IgG
As for B10, the FOB in assay [1] was 1.1 fold over background; in assay [2], 2.1 fold over background; in assay [3], 1.2 fold over background; in assay [4], 1.7 fold over background. Also, the binding result in [5] is recorded as “no binding (tested: 1 ug/ml)”; in assay [7] it was “no binding (tested: 1 ug/ml)”; in assay [9], “no binding (tested: 100 nM)”.
